Results taken from patent US20200165335A1 (Seagen, published 2020).
Numbering of substitutions follows the chain as printed.

T1: human LIV-1 (human, UniProt Q13433 29-755)
T1 construct: also called hLIV-1; Q13433
T1 sequence: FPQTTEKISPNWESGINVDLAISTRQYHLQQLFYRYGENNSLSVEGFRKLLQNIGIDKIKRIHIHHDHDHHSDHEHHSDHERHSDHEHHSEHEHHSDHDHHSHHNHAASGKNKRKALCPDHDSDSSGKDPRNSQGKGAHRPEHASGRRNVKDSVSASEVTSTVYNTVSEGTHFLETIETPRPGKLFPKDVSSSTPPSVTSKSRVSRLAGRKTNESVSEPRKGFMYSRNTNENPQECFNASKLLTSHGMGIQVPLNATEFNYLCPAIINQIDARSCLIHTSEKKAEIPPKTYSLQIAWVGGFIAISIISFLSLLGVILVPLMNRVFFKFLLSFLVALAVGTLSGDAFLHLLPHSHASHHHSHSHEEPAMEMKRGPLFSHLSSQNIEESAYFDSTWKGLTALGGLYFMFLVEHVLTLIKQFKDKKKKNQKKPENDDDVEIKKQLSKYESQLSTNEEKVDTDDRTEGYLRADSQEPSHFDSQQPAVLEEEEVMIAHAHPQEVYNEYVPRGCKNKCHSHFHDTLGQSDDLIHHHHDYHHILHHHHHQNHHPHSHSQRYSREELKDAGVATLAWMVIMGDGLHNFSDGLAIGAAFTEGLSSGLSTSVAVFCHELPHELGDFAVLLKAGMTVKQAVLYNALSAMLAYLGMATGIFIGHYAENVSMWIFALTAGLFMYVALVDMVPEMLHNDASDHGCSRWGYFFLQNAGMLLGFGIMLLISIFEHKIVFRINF

B1: humanized BR2-14a antibody HELA (antibody, V domains shown)
VH: QVQLVQSGAEVKKPGASVKVSCKASGFNIEDYYMHWVRQAPGQGLEWIGWIDPENGDTEYAPTFQGKATMTADTSINTAYMELSRLRSDDTAVYYCNVHDAHYGTWFAYWGQGTLVTVSS
VL: DVVMTQSPLSLPVTLGQPASISCRSSQSIIRNDGNTYLEWFQQRPGQSPRRLIYRVSNRFSGVPDRFSGSGSGTDFTLKISRVEAEDVGVYYCFQGSHVPYTFGGGTKVEIKR
notes: also called hLIV-1 HE + hLIV-1 LA
B2: humanized BR2-14a antibody HELD (antibody, V domains shown)
VH: B1 VH
VL: B1 VL with R50K
notes: also called hLIV-1 HE + hLIV-1 LD
B3: humanized BR2-14a antibody HELC (antibody, V domains shown)
VH: B1 VH
VL: B1 VL with Q42L
notes: also called hLIV-1 HE + hLIV-1 LC
B4: humanized BR2-14a antibody HELE (antibody, V domains shown)
VH: B1 VH
VL: B1 VL with R51L
notes: also called hLIV-1 HE + hLIV-1 LE
B5: humanized BR2-14a antibody HELB (antibody, V domains shown)
VH: B1 VH
VL: B1 VL with F41Y
notes: also called hLIV-1 HE + hLIV-1 LB
B6: humanized BR2-14a antibody HELF (antibody, V domains shown)
VH: B1 VH
VL: B1 VL with F41Y, Q42L, R44K, R50K, R51L
notes: also called hLIV-1 HE + hLIV-1 LF
B7: humanized BR2-14a antibody HDLA (antibody, V domains shown)
VH: B1 VH with N28T, I29F, E30T, I48M, K67R, A68V, A72R, N77S
VL: B1 VL
notes: also called hLIV-1 HD + hLIV-1 LA
B8: humanized BR2-14a antibody HCLE (antibody, V domains shown)
VH: B1 VH with F27Y, N28T, I29F, E30T, I48M, N77S, N97A, V98R
VL: B1 VL with R51L
notes: also called hLIV-1 HC + hLIV-1 LE
B9: humanized BR2-14a antibody HCLA (antibody, V domains shown)
VH: B1 VH with F27Y, N28T, I29F, E30T, I48M, N77S, N97A, V98R
VL: B1 VL
notes: also called hLIV-1 HC + hLIV-1 LA
B10: humanized BR2-14a antibody HDLE (antibody, V domains shown)
VH: B1 VH with N28T, I29F, E30T, I48M, K67R, A68V, A72R, N77S
VL: B1 VL with R51L
notes: also called hLIV-1 HD + hLIV-1 LE
B11: humanized BR2-14a antibody HDLC (antibody, V domains shown)
VH: B1 VH with N28T, I29F, E30T, I48M, K67R, A68V, A72R, N77S
VL: B1 VL with Q42L
notes: also called hLIV-1 HD + hLIV-1 LC
B12: humanized BR2-14a antibody HCLC (antibody, V domains shown)
VH: B1 VH with F27Y, N28T, I29F, E30T, I48M, N77S, N97A, V98R
VL: B1 VL with Q42L
notes: also called hLIV-1 HC + hLIV-1 LC
B13: humanized BR2-14a antibody HDLF (antibody, V domains shown)
VH: B1 VH with N28T, I29F, E30T, I48M, K67R, A68V, A72R, N77S
VL: B1 VL with F41Y, Q42L, R44K, R50K, R51L
notes: also called hLIV-1 HD + hLIV-1 LF
B14: humanized BR2-14a antibody HBLE (antibody, V domains shown)
VH: B1 VH with F27Y, N28T, I48M, K67R, A68V, A72R, N97A, V98R
VL: B1 VL with R51L
notes: also called hLIV-1 HB + hLIV-1 LE
B15: humanized BR2-22a antibody HALF (antibody, V domains shown)
VH: QVQLVQSGAEVKKPGASVKVSCKASGYTFTDYYMHWVRQAPGQGLEWMGWIDPENGDTEYGPKFQGRVTMTRDTSISTAYMELSRLRSDDTAVYYCARHNAHYGTWFAYWGQGTLVTVSS
VL: DVVMTQSPLSLPVTLGQPASISCRSSQSLLHSSGNTYLEWYLQRPGQSPKPLIYKISTRFSGVPDRFSGSGSGTDFTLKISRVEAEDVGVYYCFQGSHVPYTFGGGTKVEIKR
notes: also called hLIV-22 HA + hLIV-22 LF
B16: humanized BR2-22a antibody HELG (antibody, V domains shown)
VH: B1 VH with F27L, A61G, T63K, N97T, D100N
VL: B15 VL with L42Q, K50R
notes: also called hLIV-22 HE + hLIV-22 LG
B17: humanized BR2-22a antibody HELF (antibody, V domains shown)
VH: B1 VH with F27L, A61G, T63K, N97T, D100N
VL: B15 VL
notes: 15 backmutations; also called hLIV-22 HE + hLIV-22 LF; HELF historic control
B18: humanized BR2-22a antibody HFLF (antibody, V domains shown)
VH: B15 VH with Y27L, F29I, T30E, R98V
VL: B15 VL
notes: also called hLIV-22 HF + hLIV-22 LF
B19: humanized BR2-22a antibody HCLC (antibody, V domains shown)
VH: B15 VH with R67K, V68A, R72A
VL: B15 VL with Y41F, K50R, P51R
notes: also called hLIV-22 HC + hLIV-22 LC
B20: humanized BR2-22a antibody HBLF (antibody, V domains shown)
VH: B15 VH with F29I, T30E, S77N
VL: B15 VL
notes: also called hLIV-22 HB + hLIV-22 LF
B21: humanized BR2-22a antibody HELE (antibody, V domains shown)
VH: B1 VH with F27L, A61G, T63K, N97T, D100N
VL: B15 VL with Y41F, L42Q, K50R
notes: also called hLIV-22 HE + hLIV-22 LE
B22: humanized BR2-22a antibody HCLD (antibody, V domains shown)
VH: B15 VH with R67K, V68A, R72A
VL: B15 VL with Y41F, L42Q, P51R
notes: also called hLIV-22 HC + hLIV-22 LD
B23: humanized BR2-22a antibody HELA (antibody, V domains shown)
VH: B1 VH with F27L, A61G, T63K, N97T, D100N
VL: B15 VL with Y41F, L42Q, K50R, P51R
notes: also called hLIV-22 HE + hLIV-22 LA
B24: humanized BR2-22a antibody HBLB (antibody, V domains shown)
VH: B15 VH with F29I, T30E, S77N
VL: B15 VL with L42Q, K50R, P51R
notes: Not the same molecule as HBLB of the BR2-14a series (hLIV14); also called hLIV-22 HB + hLIV-22 LB
B25: humanized BR2-22a antibody HELC (antibody, V domains shown)
VH: B1 VH with F27L, A61G, T63K, N97T, D100N
VL: B15 VL with Y41F, K50R, P51R
notes: also called hLIV-22 HE + hLIV-22 LC
B26: humanized BR2-22a antibody HFLG (antibody, V domains shown)
VH: B15 VH with Y27L, F29I, T30E, R98V
VL: B15 VL with L42Q, K50R
notes: also called hLIV-22 HF + hLIV-22 LG
B27: humanized BR2-22a antibody HGLF (antibody, V domains shown)
VH: B15 VH with Y27L, F29I, T30E, S77N, R98V
VL: B15 VL
notes: also called hLIV-22 HG + hLIV-22 LF
B28: humanized BR2-22a antibody HDLF (antibody, V domains shown)
VH: B15 VH with Y27L, A97T, R98V
VL: B15 VL
notes: also called hLIV-22 HD + hLIV-22 LF

What follows are binders tested against T1, human LIV-1 (assay: competition flow cytometry, CHO cells expressing human LIV-1, vs 5 nM AF647-labelled BR2-14a).
Method: (§1) 1×10⁵ CHO cells expressing recombinant human LIV-1 in PBS/BSA were aliquoted into each well of a 96-well v-bottom plates on ice. […] Cells were pelleted and washed 3 times with PBS/BSA. The cells were pelleted and resuspended in 125 μL of PBS/BSA. Fluorescence was analyzed by flow cytometry, using percent of saturated fluorescent signal to determine percent labeled murine LIV-1 mAb bound and to subsequently extrapolate the EC50 by fitting the data to a sigmoidal dose-response curve with variable slope.

| EC50 [µg/mL] | Binder | binding result |
| --- | --- | --- |
| 12.5 | B1 | – |
| 24.2 | B2 | – |
| – | B3 | no binding (tested: 0.038 nM to 600 nM tested) |
| 0.3 | B4 | – |
| 173 | B5 | – |
| 1.5 | B6 | – |
| – | B7 | no binding (tested: 0.038 nM to 600 nM tested) |
| – | B8 | no binding (tested: 0.038 nM to 600 nM tested) |
| – | B9 | no binding (tested: 0.038 nM to 600 nM tested) |
| – | B10 | no binding (tested: 0.038 nM to 600 nM tested) |
| – | B11 | no binding (tested: 0.038 nM to 600 nM tested) |
| – | B12 | no binding (tested: 0.038 nM to 600 nM tested) |
| 1.4 | B13 | – |
| – | B14 | no binding (tested: 0.038 nM to 600 nM tested) |

Each binder was assayed against T1, human LIV-1 (assay: comparison of the EC50s of Table 3, CHO cells expressing human LIV-1).
Method: as §1

| fold better binding than the next humanized antibody HBLF [fold] | Binder |
| --- | --- |
| ≥ 2 | B4 |

These binders were tested against T1, human LIV-1 (assay: competition flow cytometry, CHO cells expressing recombinant LIV-1, vs 5 nM AF647-labelled BR2-22a).
Method: 1×10⁵ CHO cells expressing recombinant LIV-1 in PBS were aliquoted into each well of a 96-well v-bottom plates on ice. […] Cells were pelleted and washed 3 times with PBS. The cells were then pelleted and resuspended in 125 μL of PBS/BSA. Fluorescence was analyzed by flow cytometery, using percent of saturated fluorescent signal to determine percent labeled humanized BR2-22a antibody bound and to subsequently extrapolate the EC50 by fitting the data to a sigmoidal dose-response curve with variable slope.
All permutations of these five heavy chains and six light chains were then tested in a competition assay compared with BR2-22a (see FIG. 17).

| EC50 [µg/mL] | Binder | binding result |
| --- | --- | --- |
| 33.2 | B15 | – |
| 0.2 | B16 | – |
| 0.3 | B17 | – |
| 0.8 | B18 | – |
| – | B19 | no binding (tested: 0.038 nM to 600 nM tested) |
| 6.5 | B20 | – |
| 25.1 | B21 | – |
| – | B22 | no binding (tested: 0.038 nM to 600 nM tested) |
| 68.2 | B23 | – |
| 4.9 | B24 | – |
| 65.7 | B25 | – |
| 0.8 | B26 | – |
| 0.4 | B27 | – |
| 14.4 | B28 | – |
